Broadly, the Kd is the constant that tells how readily two partners part at equilibrium. A low value points to a tighter complex.

Common to all, as to conditions: remark: other sources report otherwise
The target in test [1] is T1, A Proliferation Inducing Ligand (APRIL) (human), O75888.
T1 chain: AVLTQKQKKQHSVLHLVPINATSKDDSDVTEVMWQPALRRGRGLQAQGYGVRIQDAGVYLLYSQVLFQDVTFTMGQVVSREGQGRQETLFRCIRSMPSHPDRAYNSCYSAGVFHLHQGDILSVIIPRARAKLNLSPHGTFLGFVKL
Put plainly: cell binding titration by flow cytometry; soluble APRIL varied to 10 nM on cells displaying the BCMA clone. Background: In flow cytometry, cells or beads pass a laser one at a time.

A further test has as its target BAFF. Put plainly: cell binding titration by flow cytometry; soluble BAFF varied to 10 nM on cells displaying the BCMA clone; Kd and BP printed as N.D.
Test [2] deals with T1, A Proliferation Inducing Ligand (APRIL) …. Briefly: binding assay of FIG. 1 (flow cytometry titration, one-site specific binding fit; format not stated); FIG. 1 legend, unit printed pM.
For test [3] the target is unchanged. Put plainly: binding assay of FIG. 1 (flow cytometry titration, one-site specific binding fit; format not stated); Example 4 results, unit printed µM.
Test [4] shares this target. Put plainly: flow cytometry titration of soluble APRIL on yeast displaying BCMA; one site specific binding fit; A.U. from the axis 'Cell binding (A.U.)'.
Test [5] has the same target. Briefly: cell binding titration by flow cytometry; soluble APRIL varied to 10 nM on cells displaying the BCMA clone; BP is not defined in the filing.
Test [6] has the same target. Briefly: flow cytometry titration of soluble APRIL (about 0.0005 to 10 nM) on yeast displaying BCMA; one site specific binding fit, nM is the unit of the concentration axis.

Sequence of BAFF (chain, as listed by the source): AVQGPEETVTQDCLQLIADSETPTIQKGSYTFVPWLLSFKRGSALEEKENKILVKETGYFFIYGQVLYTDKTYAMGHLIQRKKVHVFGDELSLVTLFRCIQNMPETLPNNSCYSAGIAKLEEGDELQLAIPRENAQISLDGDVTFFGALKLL

B1: wild type human BCMA extracellular domain (sBCMA WT ECD), Q02223 1-54 (receptor)
chain: MLQMAGQCSQNEYFDSLLHACIPCQLRCSSNTPPLTCQRYCNASVTNSVKGTNA
With B1, the values for the Bmax (in test [1]; with BAFF; in test [4]) were 6560 A.U, 78.3 A.U and 9930 A.U, respectively. Besides, the Kd was 0.025 nM in test [1], 0.032 nM in test [2], 0.032 nM in test [3] and 0.0323 nM in test [6]. Further, the BP in test [5] came out at 263.

The values above are taken from patent publication US20240294604A1.
